# Publication PMC11503491
# What was measured:
# Test in all cases: BLI
# [1] = biological target: R11K (RBD 319-533 with 11 added lysines and the repackaging substitutions Y365F, F392W, V395I) (SARS-CoV-2 Wuhan Hu-1)
# [2] = biological target: R11K-CL (R11K cross-linked with Bis-NHS-PEG5 while protected by S2X259) (SARS-CoV-2 Wuhan Hu-1)
# [3] = biological target: R11K-PMD (R11K modified with NHS-PEG4-methyl while protected by S2X259) (SARS-CoV-2 Wuhan Hu-1)
# [4] = biological target: R11K-CL (R11K cross-linked with Bis-NHS-PEG5 while protected on S2X259 resin) (SARS-CoV-2 Wuhan Hu-1)
# [5] = biological target: R11K-PMD (R11K modified with NHS-PEG4-methyl while protected on S2X259 resin) (SARS-CoV-2 Wuhan Hu-1)
# [6] = biological target: R11K (RBD with 11 additional lysines and three repackaging substitutions) (SARS-CoV-2 Wuhan Hu-1)
substance,measurement,setting,value
CB6 (class 1 RBD-directed antibody),koff,[1],0.037 s⁻¹
S2X259 (class 4 RBD-directed antibody),koff,[1],0.0021 s⁻¹
CR3022 (class 4 RBD-directed antibody),koff,[1],0.059 s⁻¹
S2X259 IgG (antibody),koff,[2],0.001 s⁻¹
same,koff,[3],0.00085 s⁻¹
S309 (class 3 RBD-directed antibody),koff,[1],0.00014 s⁻¹
same,koff,[4],0.0021 s⁻¹
same,koff,[5],0.0019 s⁻¹
fragment antigen-binding region (Fab) of S2X259,Kd,[6],1.5 nM
